Assay results reported in patent US20230285578A1 (INDIANA UNIVERSITY RESEARCH AND TECHNOLOGY, published 2023).
One block for each binder: values may come before it. Starred links: 1 amine or outer side, 2 acyl side, 3 side chain; linkers in the order of their positions; H or OH if unused. Groups on a side chain read outwards from the residue. No end group written: not given here. *: point of attachment. C18 diacid = O=C(O)CCCCCCCCCCCCCCCCC(=O)*; γGlu = O=C(O)[C@H](CCC(=O)[*:2])N[*:1]; AEEA = NCCOCCOCC(=O)O

Assays:
Assay in all cases: cell-based or functional assay
[1] = biological target: T1, PTH1 receptor (UniProt Q03431 27-593, limits assumed)
T1 sequence (looked up): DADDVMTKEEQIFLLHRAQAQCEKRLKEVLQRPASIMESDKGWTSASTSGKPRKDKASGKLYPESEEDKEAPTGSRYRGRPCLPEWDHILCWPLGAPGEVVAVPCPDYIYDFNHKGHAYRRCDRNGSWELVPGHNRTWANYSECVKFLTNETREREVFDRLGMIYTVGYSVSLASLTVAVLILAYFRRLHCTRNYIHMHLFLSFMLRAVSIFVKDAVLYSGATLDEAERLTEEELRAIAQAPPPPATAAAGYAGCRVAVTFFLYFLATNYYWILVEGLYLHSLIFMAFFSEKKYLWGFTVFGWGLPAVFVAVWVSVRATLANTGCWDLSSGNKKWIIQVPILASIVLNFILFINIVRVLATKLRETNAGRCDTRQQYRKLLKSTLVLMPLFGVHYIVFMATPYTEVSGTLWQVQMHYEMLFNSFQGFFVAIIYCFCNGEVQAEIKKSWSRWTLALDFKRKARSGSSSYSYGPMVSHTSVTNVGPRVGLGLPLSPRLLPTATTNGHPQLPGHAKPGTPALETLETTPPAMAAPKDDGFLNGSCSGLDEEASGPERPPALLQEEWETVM

[2] = biological target: T2, PTH1 receptor, Q03431
T2 chain: T1 sequence (looked up)

[3] = biological target: T1, PTH1 receptor; remark: listed apart in the source
[4] = biological target: T1, PTH1 receptor; remark: listed apart in the source
[5] = biological target: T1, PTH1 receptor; remark: listed apart in the source
[6] = biological target: T1, PTH1 receptor; remark: listed apart in the source
[7] = biological target: T1, PTH1 receptor; remark: listed apart in the source
[8] = biological target: T1, PTH1 receptor; remark: listed apart in the source

Potency EC50 (cAMP-responsive luciferase reporter, HEK293 cells co-transfected with the PTH1 receptor) [1]: 45.5 nM
B1: PTH(1-34), dK-1(γE-diacidC18), N(Me)G0 (peptide)
peptide: XXSVSEIQLMHNLGKHLNSMERVEWLRKKLQDVHNF
modifications: d-Lys at position -1 with side chain acylated with γE-COC16H32CO2H; N-methyl-Gly (sarcosine) at position 0; C-terminal free acid

EC50 pM (cAMP Hunter Teriparatide Bioassay, CHO-K1 PTHR1 cells; FIG. 13B) [2]: 43.1 pM
Binder: SVSEIQLMHNLGKHLNSMERVEWLRKKLEDVHK([γGlu-miniPEG-miniPEG-γGlu-C18 diacid]) (ends and bridges not checked) [SEQ ID NO: 124]

EC50 pM (cAMP Hunter Teriparatide Bioassay, CHO-K1 PTHR1 cells; FIG. 13A) [2]: 80.3 pM
Binder: SVSEIELMHNLGKHLNSMERVEWLRKKLQDVHK([γGlu-miniPEG-miniPEG-γGlu-C18 diacid]) (ends and bridges not checked) [SEQ ID NO: 118]

EC50 pM (cAMP Hunter Teriparatide Bioassay, CHO-K1 PTHR1 cells; FIG. 13A) [2]: 10.9 pM
Binder: SVSEIQLMHDLGKHLNSMERVEWLRKKLQDVHK([γGlu-miniPEG-miniPEG-γGlu-C18 diacid]) (ends and bridges not checked) [SEQ ID NO: 120]

Potency EC50 (cAMP-responsive luciferase reporter, HEK293 cells co-transfected with the PTH1 receptor) [1]: 2.9 nM
Binder: SVSEIQLMHNLGKHLNSMERVEWLRKKLQDVHNFX (Lys35 side chain acylated with γE-COC16H32CO2H (C18 diacid); C-terminal amide) [PTH(1-35)a, K35(γE-diacidC18)]

in vitro potency (fold reduction against the analog without A8) [3]: ~100 fold
B2: PTH(1-33), A8, K33(γE-2xOEG-γE-diacidC18) (peptide)
peptide: SVSEIQLAHNLGKHLNSMERVEWLRKKLQDVHK([γGlu-AEEA-AEEA-γGlu-C18 diacid])-OH
modifications: N-terminus assumed
SMILES: CC[C@H](C)[C@H](NC(=O)[C@H](CCC(=O)O)NC(=O)[C@H](CO)NC(=O)[C@@H](NC(=O)[C@@H](N)CO)C(C)C)C(=O)N[C@@H](CCC(N)=O)C(=O)N[C@@H](CC(C)C)C(=O)N[C@@H](C)C(=O)N[C@@H](Cc1c[nH]cn1)C(=O)N[C@@H](CC(N)=O)C(=O)N[C@@H](CC(C)C)C(=O)NCC(=O)N[C@@H](CCCCN)C(=O)N[C@@H](Cc1c[nH]cn1)C(=O)N[C@@H](CC(C)C)C(=O)N[C@@H](CC(N)=O)C(=O)N[C@@H](CO)C(=O)N[C@@H](CCSC)C(=O)N[C@@H](CCC(=O)O)C(=O)N[C@@H](CCCNC(=N)N)C(=O)N[C@H](C(=O)N[C@@H](CCC(=O)O)C(=O)N[C@@H](Cc1c[nH]c2ccccc12)C(=O)N[C@@H](CC(C)C)C(=O)N[C@@H](CCCNC(=N)N)C(=O)N[C@@H](CCCCN)C(=O)N[C@@H](CCCCN)C(=O)N[C@@H](CC(C)C)C(=O)N[C@@H](CCC(N)=O)C(=O)N[C@@H](CC(=O)O)C(=O)N[C@H](C(=O)N[C@@H](Cc1c[nH]cn1)C(=O)N[C@@H](CCCCNC(=O)CC[C@H](NC(=O)COCCOCCNC(=O)COCCOCCNC(=O)CC[C@H](NC(=O)CCCCCCCCCCCCCCCCC(=O)O)C(=O)O)C(=O)O)C(=O)O)C(C)C)C(C)C

EC50 pM (cAMP Hunter Teriparatide Bioassay, CHO-K1 PTHR1 cells; FIG. 13B) [2]: 14.3 pM
Binder: SVSEIQLMHNLGKHLDSMERVEWLRKKLQDVHK([γGlu-miniPEG-miniPEG-γGlu-C18 diacid]) (ends and bridges not checked) [SEQ ID NO: 122]

Potency EC50 (cAMP-responsive luciferase reporter, HEK293 cells co-transfected with the PTH1 receptor) [1]: 200 nM
B3: PTH(1-35)a, dK-1(γE-diacidC18), N(Me)G0, K35(γE-diacidC18) (peptide)
peptide: XXSVSEIQLMHNLGKHLNSMERVEWLRKKLQDVHNFX
modifications: d-Lys at position -1 with side chain acylated with γE-COC16H32CO2H; N-methyl-Gly (sarcosine) at position 0; Lys35 side chain acylated with γE-COC16H32CO2H; C-terminal amide

EC50 pM (cAMP Hunter Teriparatide Bioassay, CHO-K1 PTHR1 cells; FIG. 8A) [4]: 31 pM | EC50 pM (cAMP Hunter Teriparatide Bioassay, CHO-K1 PTHR1 cells; FIG. 11) [5]: 10 pM | EC50 pM (cAMP Hunter Teriparatide Bioassay, CHO-K1 PTHR1 cells; FIG. 12) [6]: 36.6 pM | EC50 pM (cAMP Hunter Teriparatide Bioassay, CHO-K1 PTHR1 cells; FIG. 13A) [7]: 10.7 pM | EC50 pM (cAMP Hunter Teriparatide Bioassay, CHO-K1 PTHR1 cells; FIG. 13B) [8]: 19.3 pM
B4: PTH(1-33), K33(γE-2xOEG-γE-diacidC18) (peptide)
peptide: SVSEIQLMHNLGKHLNSMERVEWLRKKLQDVHX
modifications: Lys33 side chain acylated with γE-(miniPEG)2-γE-COC16H32CO2H; C-terminal free acid

EC50 pM (cAMP Hunter Teriparatide Bioassay, CHO-K1 PTHR1 cells; FIG. 12) [6]: 41.7 pM
Binder: SVSEIQLMHNLGKHLNSXERVEWLRKKLQDVHX (site-specifically oxidised to methionine sulfoxide (position not given)) [SEQ ID NO: 110]
